Reference: patent publication US20240110213A1 (Chr. Hansen HMO GmbH, priority 2020, published 2024)
Where two headings read alike, the source gives them in different places.

Columns and labels:
E. coli wild-type LacY = E. coli wild-type LacY (Escherichia coli, UniProt P02920); settings: cited from earlier work
lactose permease genes = test: Expression analysis of lactose permease genes by qPCR; type: cell-based, E. coli BL21(DE3); settings: normalized to gapA, compared with parental strain, FIG. 3
Description: A metabolically engineering derivative of E. coli BL21(DE3) which was capable of producing lacto-N-tetraose (LNT) was obtained by genetic engineering.
For expression analyses individual clones obtained from above-referenced mutagenesis approach were inoculated in 25 ml mineral salts medium in shaking flasks. Expression analysis of each clone was performed in 3 replicates. The bacterial cells were grown at 30° C. and a relative humidity of 80% with constant agitation at 120 rpm. After 20 h of culturing, the optical densities of these precultures were determined and the main cultures were seeded to an OD600 of 0.05 in 25 ml of mineral salts medium. The main cultures were cultured for 20 h under the same conditions as the pre-cultures were cultured. Then the bacterial cells were harvested by centrifugation and used for extraction of RNA and subsequent expression analysis by qPCR. The relative quantification of expression levels was performed using the comparative Δ cycle threshold method, the calculated relative expression values were normalized to gapA and compared with the expression level in the parental strain used as control.

[1] = system: bacterial LNT production strains; test: Lactose sensitivity of bacterial LNT production strains (OD600 in shaking flasks); type: cell-based, E. coli BL21(DE3); settings: 20 hours after addition, compared to growth in the absence of lactose
Description: The culture medium used to grow the cells for the production of the desired oligosaccharide contained: 3 g/L KH2PO4, 12 g/L K2HPO4, 5 g/L (NH4)SO4, 0.3 g/L citric acid, 0.1 g/L NaCl, 2 g/L MgSO4×7 H2O and 0.015 g/L CaCl2×6 H2O, supplemented with 1 ml/L trace element solution (54.4 g/L ammonium ferric citrate, 9.8 g/L MnCl2×4 H2O, 1.6 g/L […], 1 g/L CuCl2×2 H2O, 1.9 g/L MnCl2×4 H2O, 1.1 g/L Na2MoO4×2 H2O, 1.5 g/L Na2SeO3, 1.5 g/L NiSO4×6 H2O). The pH of the medium was adjusted to 7.0. Lactose was added to the medium in a concentration of 10 mM to 25 mM for synthesis of the desired oligosaccharide by the cells and for testing the cells' sensitivity to lactose.
The bacterial cells were grown at 30° C. and 80% relative humidity with constant agitation at 120 rpm. After 20 h culturing, the optical density of the pre-cultures was determined and the main cultures were inoculated to an OD600 of 0.3 in 25 ml of mineral salts medium. Lactose was added to the culture medium two hours after inoculation of the cultures to final concentrations of 10 or 25 mM. The optical densities (OD600) of the main cultures were determined 20 hours after addition of lactose.

[2] = system: LNT-producing E. coli strain; test: Lacto-N-tetraose production in lab scale fermentation (3 litre); type: cell-based
Description: The identity of lacto-N-tetraose being produced was determined by multiple reaction monitoring (MRM) using an LC triple-quadrupole MS detection system (Shimadzu LCMS-8050). Precursor ions were selected and analyzed in quadrupole 1, followed by collision-induced fragmentation (CID) with argon and selection of fragment ions in quadrupole 3.
The oligosaccharide LNT in particle-free culture supernatants or cytoplasmic fractions were separated by high performance liquid chromatography (HPLC) using a Waters XBridge Amide HPLC column (3.5 μm, 2.1 […] 50 mm) for both neutral or acidic sugars. Neutral sugars were eluted with isocratic flow of H2O with 0.1% (v/v) ammonium hydroxide. The HPLC system encompasses a Shimadzu Nexera X2 SIL-30ACMP autosampler run at 8° C., a Shimadzu LC-20AD pump, and a Shimadzu CTO-20AC column oven running at 35° C. for elution of neutral sugars and was adjusted to 50° C. for elution of acidic sugars. For the analysis of LNT 1 μl was injected into the instrument. Flow rate was set 0.3 mL/min corresponding to a run time of 5 min. LNT was analyzed in negative ion mode. The mass spectrometer was operated at unit resolution. Collision energy, Q1 and Q3 pre-bias were optimized for each analyte. Quantification methods were established using commercially available standards (Carbosynth and Elicityl).
The impact of reduced lactose import and reduced lactose sensitivity by a bacterial strain on its oligosaccharide production was analyzed in a small-scale fermentation.
In a first set of fermentations each of the bacterial strains was inoculated from a preculture in a fermentation broth containing 20 mM lactose.
In these cultures, the lactose feed (2.5 ml/L/h) was started at the end of the batch phase.

[3] = system: E. coli strains expressing different variants of the E. coli lactose permease LacY; type: cell-based
Description: Bacterial cell pellets from these cultures were used to inoculate 100 ml minimal medium in shaking flasks. These cultures were incubated for 16 hours at 37° C. in a shaker. The bacterial cells were then sedimented by centrifugation and the resulting pellets were washed twice with fresh cold (4° C.) culture medium and finally resuspended in cold medium. The optical density (OD600) of the cell suspension was set to 5 with cold medium, and the cell suspension is were stored on ice until use for the internalization assay.
Three minutes prior to the transport assay, the bacterial cells were placed in a 37° C. thermo block. […] […] The bacterial cells on the filter were washed twice with 100 mM LiCl and the filter was used subsequently to quantify remaining radioactivity in a Tricarb 2800 scintillation counter (Perkin Elmar, Waltham, MA). To this end, the filters were transferred into scintillation tubes and overlaid with 6 ml Rotiszint eco plus (Roth, Karlsruhe, DE).
In a second set of experiments, the transport assays were started by addition of a mixture of ^14C-labelled lactose and non-radiolabeled lactose to a final concentration of 5 mM lactose and 550,000 dpm. The bacterial cells were collected by filtration after 60 seconds incubation, and washed twice with 3 ml medium containing 5 mM unlabelled lactose.

Sequence of E. coli wild-type LacY (P02920 whole entry): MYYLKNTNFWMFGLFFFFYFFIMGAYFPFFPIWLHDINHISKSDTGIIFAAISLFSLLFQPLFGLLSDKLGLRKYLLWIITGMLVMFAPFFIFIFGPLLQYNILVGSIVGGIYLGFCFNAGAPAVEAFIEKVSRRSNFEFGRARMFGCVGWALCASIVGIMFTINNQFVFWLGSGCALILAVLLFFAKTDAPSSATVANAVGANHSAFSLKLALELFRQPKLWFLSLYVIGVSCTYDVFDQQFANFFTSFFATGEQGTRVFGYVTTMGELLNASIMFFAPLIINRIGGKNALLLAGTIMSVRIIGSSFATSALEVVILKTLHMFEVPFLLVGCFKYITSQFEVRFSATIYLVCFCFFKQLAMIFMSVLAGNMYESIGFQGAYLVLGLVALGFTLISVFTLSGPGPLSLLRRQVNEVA

Q: Which Km (E. coli wild-type LacY) does the source give for OC[C@H]1O[C@@H](O[C@@H]2[C@@H](CO)OC(O)(CO)[C@H]2O)[C@H](O)[C@@H](O)[C@H]1O (mixture of isomers) [lactulose] here?
A: The Km was 240 µM.

Q: Which Km (E. coli wild-type LacY) does the source give for CS[C@@H]1O[C@H](CO)[C@H](O)[C@H](O)[C@H]1O [TMG, methyl-1-thio-β,D-galactopyranoside, reference compound] here?
A: The Km was 540 µM.

Q: With O=C[C@H](O)[C@@H](O)[C@H](O[C@@H]1O[C@H](CO)[C@H](O)[C@H](O)[C@H]1O)[C@H](O)CO [lactose, β-D-galactopyranosyl-(1→4)-D-glucose] as the molecule, how does the Km (E. coli wild-type LacY) read?
A: Its Km is 620 µM.

Q: Which Km (E. coli wild-type LacY) does the source give for OC[C@H]1O[C@H](OCC2O[C@@H](O)[C@H](O)[C@@H](O)[C@@H]2O)[C@H](O)[C@@H](O)[C@H]1O (stereo partly shown) [melibiose] here?
A: Its Km is 240 µM.

B1: LacY(L293R): E. coli LacY variant with leucine at position 293 substituted with arginine (protein, UniProt P02920 1-417, looked up, variant L293R)
Lactose permease: MYYLKNTNFWMFGLFFFFYFFIMGAYFPFFPIWLHDINHISKSDTGIIFAAISLFSLLFQPLFGLLSDKLGLRKYLLWIITGMLVMFAPFFIFIFGPLLQYNILVGSIVGGIYLGFCFNAGAPAVEAFIEKVSRRSNFEFGRARMFGCVGWALCASIVGIMFTINNQFVFWLGSGCALILAVLLFFAKTDAPSSATVANAVGANHSAFSLKLALELFRQPKLWFLSLYVIGVSCTYDVFDQQFANFFTSFFATGEQGTRVFGYVTTMGELLNASIMFFAPLIINRIGGKNALRLAGTIMSVRIIGSSFATSALEVVILKTLHMFEVPFLLVGCFKYITSQFEVRFSATIYLVCFCFFKQLAMIFMSVLAGNMYESIGFQGAYLVLGLVALGFTLISVFTLSGPGPLSLLRRQVNEVA
Q: For B1, which relative expression (lactose permease genes) is on record?
A: The relative expression was “at the same level”.

Q: What about the “growth (OD600)” value ([1]; 10 mM lactose) of the same molecule?
A: Its value is “not reduced”.

Q: What about the “growth (OD600)” value ([1]; 25 mM lactose) of the same molecule?
A: The value was “not reduced”.

Q: What about the “growth kinetics throughout the fermentation” value ([2]; LNT fermentation, FIG. 7) of the same molecule?
A: Its value is “regular growth kinetics”.

Q: What about the “optical density reached in the culture” value ([2]; LNT fermentation, FIG. 7, compared to strain bearing LacY) of the same molecule?
A: The value was “higher”.

Q: What about the “setback in the OC600 and lactose-caused cell lysis” value ([2]; continuous lactose feed 3.2 ml/L/h, lactose level kept high) of the same molecule?
A: The value was “without causing any setback in the OC600 and without apparent lactose-caused cell lysis”.

Q: And the growth ([2]; fermentation broth containing 20 mM lactose at inoculation)?
A: Its growth is “did not display any problems in growth”.

Q: What about the “lactose internalization (radioactivity incorporated)” value ([3]; exogenous lactose 0.5 mM, 30 seconds, FIG. 5A) of the same molecule?
A: The value was “reduced but detectable”.

Q: And the “lactose internalization (radioactivity incorporated)” value ([3]; exogenous lactose 5 mM, 60 seconds, FIG. 5B)?
A: Its value is “reduced but detectable”.
